Experimental data taken from patent US20220056125A1 (CEPHALON, published 2022).
Changes are numbered by the printed parent chain. Numbers in names are those of the source. Where “and” joins values, the source holds several entries; their conditions need not be identical. Equal values may be shown once.

What was measured:
human PAR-2 [1] = target: T1, human PAR-2 (human, UniProt P55085 26-397); assay: cell-based or functional assay
T1 sequence: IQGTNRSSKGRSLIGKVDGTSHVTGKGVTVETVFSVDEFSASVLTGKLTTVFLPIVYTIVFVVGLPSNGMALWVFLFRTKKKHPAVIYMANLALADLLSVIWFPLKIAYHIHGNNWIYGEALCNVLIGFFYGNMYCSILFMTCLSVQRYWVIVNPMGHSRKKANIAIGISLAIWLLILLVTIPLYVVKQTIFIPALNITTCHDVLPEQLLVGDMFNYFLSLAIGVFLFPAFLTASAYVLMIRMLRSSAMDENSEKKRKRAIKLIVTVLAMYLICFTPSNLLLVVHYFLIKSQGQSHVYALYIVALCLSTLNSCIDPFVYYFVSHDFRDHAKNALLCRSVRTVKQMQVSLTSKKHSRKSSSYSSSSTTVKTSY

human PAR-2 [2] = target: T1, human PAR-2; assay: cell-based or functional assay; remark: listed apart in the source
human PAR-1 = target: T2, human PAR-1 (human, UniProt P25116 22-425); assay: flow cytometry, transfected Expi293F cells
T2 construct: also called huPAR-1
T2 sequence: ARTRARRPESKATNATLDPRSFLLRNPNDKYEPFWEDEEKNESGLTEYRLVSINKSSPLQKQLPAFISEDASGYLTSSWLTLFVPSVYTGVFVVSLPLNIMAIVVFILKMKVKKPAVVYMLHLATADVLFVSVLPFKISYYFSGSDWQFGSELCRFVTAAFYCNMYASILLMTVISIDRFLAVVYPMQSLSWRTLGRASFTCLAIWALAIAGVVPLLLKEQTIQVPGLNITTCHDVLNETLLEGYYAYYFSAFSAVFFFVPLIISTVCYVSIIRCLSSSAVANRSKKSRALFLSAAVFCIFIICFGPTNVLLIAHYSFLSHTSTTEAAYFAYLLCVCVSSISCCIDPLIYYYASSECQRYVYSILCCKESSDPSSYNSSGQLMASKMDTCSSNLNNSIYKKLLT

human PAR-2 [3] = target: T1, human PAR-2; assay: cell-based or functional assay; remark: listed apart in the source
human PAR-2 [4] = target: T1, human PAR-2; assay: cell-based or functional assay; remark: listed apart in the source
human PAR-2 [5] = target: T1, human PAR-2; assay: cell-based or functional assay; remark: listed apart in the source
human PAR-2 [6] = target: T1, human PAR-2; assay: cell-based or functional assay; remark: listed apart in the source
rat PAR-2 on cells = target: T3, rat PAR-2 on cells (rat, UniProt Q63645 26-397); assay: flow cytometry, transiently transfected CHEM-1 cells
T3 construct: transiently transfected CHEM-1 cells
T3 sequence: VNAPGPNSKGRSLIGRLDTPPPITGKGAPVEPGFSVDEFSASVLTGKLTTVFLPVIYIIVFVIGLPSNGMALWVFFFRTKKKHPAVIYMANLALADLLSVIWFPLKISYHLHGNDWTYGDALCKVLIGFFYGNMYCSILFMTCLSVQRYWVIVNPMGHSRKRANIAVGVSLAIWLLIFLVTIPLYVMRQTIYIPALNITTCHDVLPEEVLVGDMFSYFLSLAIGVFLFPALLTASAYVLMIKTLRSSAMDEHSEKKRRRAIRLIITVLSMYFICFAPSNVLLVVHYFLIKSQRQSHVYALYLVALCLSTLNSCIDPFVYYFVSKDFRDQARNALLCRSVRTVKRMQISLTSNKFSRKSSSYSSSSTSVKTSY
Procedure: The cells were plated in 96 well plates at 2×10⁵ cells/well. Following a wash step using Phosphate buffered saline (PBS), the primary antibody (anti-PAR-2 antibody) was added at a concentration of 10 μg/mL in 50 μL of FACS buffer (0.5% w/v BSA in PBS) to each well and incubated for 10-15 mins. Following a wash step, secondary antibody (anti-human Fc-FITC) was added to the wells at 1:200 dilution in 50 μL for 10-15 mins. Following a washing step, the cells were re-suspended in fluorescence-activated cell sorting (FACS) buffer. The flow cytometry analysis was performed on an Intellicyt iQue screener. Gates were drawn around the different intensities of encoder dye-positive cells and these populations were analyzed separately from each other and the unlabeled cells for binding by the primary antibody.
P24E1102 binding was also assessed by flow cytometry, as described in Example 1 supra, using PAR-2 transiently transfected into CHEM-1 cells. In addition to human, cynomolgus, mouse and rat, guinea pig, rabbit and dog PAR-2 were also tested. P24E1102 bound well to human and cynomolgus PAR-2 but minimally to all other species tested.

recombinant human PAR-2 = target: T4, recombinant human PAR-2 (human, UniProt P55085 37-397, limits assumed); assay: SPR, antibody captured on Protein A chip, recombinant PAR-2 injected
T4 construct: detergent-solubilised preparation used in SPR; also called recombinant PAR-2
T4 sequence: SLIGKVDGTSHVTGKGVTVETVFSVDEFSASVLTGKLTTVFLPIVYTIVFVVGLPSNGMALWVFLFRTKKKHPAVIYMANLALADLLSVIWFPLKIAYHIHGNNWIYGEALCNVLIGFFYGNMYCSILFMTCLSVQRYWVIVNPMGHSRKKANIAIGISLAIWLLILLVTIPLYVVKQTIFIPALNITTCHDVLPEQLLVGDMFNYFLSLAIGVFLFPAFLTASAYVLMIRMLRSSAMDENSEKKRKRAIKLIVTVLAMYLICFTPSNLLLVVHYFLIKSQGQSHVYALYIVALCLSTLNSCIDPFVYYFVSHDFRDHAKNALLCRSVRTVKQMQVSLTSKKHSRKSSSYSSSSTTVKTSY
Procedure: (§1) Selected antibodies were tested for binding to various species of PAR-2 using surface plasmon resonance (SPR) assay for antibody binding to recombinant PAR-2, except that human PAR-2 was substituted with PAR-2 from cynomolgus monkeys, rat, or mice.
(§2) Antibodies were transfected and harvested as described in Example 3, supra. Antibodies in supernatant were diluted 1 in 50-250 in running buffer (50 mM HEPES, 250 mM NaCl, 0.1% w/v LMNG, 0.025% w/v CHAPS, 0.005% CHS, pH 7.4) and purified antibodies were diluted to 0.5 ug/mL in running buffer A Series S Protein A chip was docked into the instrument (Biacore S20) and the system was primed four times with running buffer prior to the run. Recombinant human PAR-2 was diluted to 0-5 μg/mL in running buffer. The surface was regenerated using 50 mM NaOH. The antibody was captured to between 20 to 110 Relative Units on the chip surface. The sample (recombinant PAR-2) was injected for 1 min at 30 μl/min, followed by dissociation phase of 180s. Sensorgrams were double referenced by buffer subtraction and by reference cell subtraction. Binding curves were then fit to a 1:1 binding model with kinetic constants derived from curve fits. Antibodies were ranked by dissociation rate (kd) when only one concentration of antigen was injected. Antibodies were ranked by their equilibrium dissociation constant (KD) when multiple concentrations of PAR-2 were injected. […]

[7] = target: T5, recombinant cynomolgus monkey PAR-2 (cynomolgus monkey); assay: as above
T5 construct: also called cynomolgus PAR-2
T5 sequence (Q863Y8 other isoform, or with tags, fused parts or gaps): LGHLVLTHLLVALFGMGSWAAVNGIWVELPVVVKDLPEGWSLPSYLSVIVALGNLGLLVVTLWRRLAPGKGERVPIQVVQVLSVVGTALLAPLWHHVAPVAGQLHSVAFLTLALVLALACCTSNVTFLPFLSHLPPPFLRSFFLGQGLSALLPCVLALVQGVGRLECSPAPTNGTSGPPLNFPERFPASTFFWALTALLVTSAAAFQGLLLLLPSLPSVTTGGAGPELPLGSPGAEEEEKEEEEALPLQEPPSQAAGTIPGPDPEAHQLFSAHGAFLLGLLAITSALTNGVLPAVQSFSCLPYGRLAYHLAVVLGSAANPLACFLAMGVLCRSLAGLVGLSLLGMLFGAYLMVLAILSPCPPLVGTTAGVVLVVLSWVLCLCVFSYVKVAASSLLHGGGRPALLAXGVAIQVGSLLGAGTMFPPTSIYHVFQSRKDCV
Procedure: as §1, §2

human PAR-2 [8] = target: T1, human PAR-2; assay: cell-based or functional assay; remark: listed apart in the source

B1: Ab1 (antibody, human IgG4, V domains shown)
VH: EVQLVEFGGGLVQPKGSLKLSCAASGFTFNTNAMHWVRQAPGKGLEWVARIGSKSSYFATYYADSVKDRFTISRDDSRSMFYLQMNNLKTEDTAMYYCVREDYYGSSFDLWGQGTTLTVSS
VL: QIVLSQSPAILSASPGEKVTMTCRASSSLPYIHWYQQKPGSSPRPWIYATSNLASGVPARFSGRGSGTSYSLTISRMEAEDAATYYCQQWSSTPPTFGGGSKLEIK
notes: also called Anti-PAR-2 antibody # 1
IC50, PAR-2 β-arrestin cell assay (human PAR-2 [1]): 8.4 nM
IC50, PAR-2 calcium flux assay (trypsin EC80) (human PAR-2 [2]): 50.5 nM
binding result (human PAR-1): no binding (tested: 10 µg/mL)

B2: Ab39 (antibody, human IgG4, V domains shown)
VH: B1 VH with F7S, N32Y, F58Y, D75A, R78Q, F81L, M95I, S106C, L110Y
VL: QIVLSQSPVILSTSPGEKVTMTCRANSRVIYVHWYQQKPGSSPKPWIFATSNLASGVPSRFSGSGSGTSYSLTISRVETEDAATYYCQHCGNNPPTFGSGTKLEIK
notes: also called Anti-PAR-2 antibody # 39
IC50, PAR-2 β-arrestin cell assay (human PAR-2 [1]): 4.9 nM
IC50, PAR-2 calcium flux assay (trypsin EC80) (human PAR-2 [2]): 29 nM
binding result (human PAR-1): no binding (tested: 10 µg/mL)

B3: Ab77 (antibody, human IgG4, V domains shown)
VH: B1 VH with E6G, F7S, N32Y, F58Y, R78Q, F81L, F108Y, L110Y
VL: DIVMTQSHKFMSISVGDRVSITCKASQDVGTAVAWHQQKAGQSPKLLIYWASARHTGVPDRFTGSGSGTDFTLTISNVQSEDLTDFFCQQYSNYPFTFGSGTKLEIK
notes: also called Anti-PAR-2 antibody # 77
IC50, PAR-2 β-arrestin cell assay (human PAR-2 [1]): 16.5 nM
IC50, PAR-2 calcium flux assay (trypsin EC80) (human PAR-2 [2]): 169 nM
binding result (human PAR-1): no binding (tested: 10 µg/mL)

B4: Ab20 (antibody, human IgG4, V domains shown)
VH: EVQLVESGGGLVQPKGSLKLSCAASGFTFNIYAMHWVRQAPGKGLEWVARIGSKSSNYATNYADSVKDRFTISRDDSQSMLCLQMNNLKTEDTAMYYCVREDYYGNSFDSWGQGTTLAVSS
VL: QIVLSQSPAILSASPGEKVTMTCRTSSSVIYIHWYQQKSGSSPKPWIYATSNLASGVPTRFSGSGSGTSYSLTISRVEAEDAATYYCHHWRSNPPTFGGGTKLEIK
notes: also called Anti-PAR-2 antibody # 20
IC50, PAR-2 β-arrestin cell assay (human PAR-2 [1]): 10.7 nM
IC50, PAR-2 calcium flux assay (trypsin EC80) (human PAR-2 [2]): 73.2 nM
binding result (human PAR-1): no binding (tested: 10 µg/mL)

B5: P24E1102 (antibody, human IgG4 S228P, kappa, V domains shown)
VH: QVQLVQSGAEVKKPGSSVKVSCKASGFSLSSYAISWVRQAPGQGLEWMGVIWGNQNVYYAQKFQGRVTITADESTSTAYMELSSLRSEDTAVYYCARWKGYKDYPFDYWGQGTLVTVSS
VL: EIVLTQSPATLSLSPGERATLSCRASQNVYKWLDWYQQKPGQAPRLLIYNANTRATGIPARFSGSGSGRDFTLTISSLEPEDFAVYYCQQHHSGWTFGGGTKVEIKR
notes: human IgG4 S228P K447del / kappa; also called Anti-PAR-2 (P24E1102); TEV-56192 P24E1102
IC50, PAR-2 activating ligand-induced calcium flux in A549 cells (human PAR-2 [3]): 13.2 nM
PAR-2 β-arrestin cell based assay IC50, 2 µM SLIGKV (human PAR-2 [4]): 1.4 nM
Calcium flux IC50 (human PAR-2 [5]): 17.4 nM
IL-6 release in A549 cells IC50 (human PAR-2 [5]): 5 nM
IL-8 release in A549 cells IC50 (human PAR-2 [5]): 4.62 nM
IC50 mean, calcium flux at SLIGKV EC80, Nomad line (human PAR-2 [6]): 2.07 nM
IC50 mean, β-arrestin at SLIGKV EC80, Nomad line (human PAR-2 [6]): 5.38 nM
binding result (rat PAR-2 on cells): binds
Kd (recombinant human PAR-2): 0.433 to 0.946 nM
Kd [7]: 4.45 nM

B6: 309-4e (antibody, human IgG4 S228P, kappa, V domains shown)
VH: B5 VH with S30N, A33G, I34V, S35I, Q55G, V57T, A60N, K99R
VL: B5 VL with R24K, V29I, W32Y, A51T, T53S, R54L, A55H, Q89L, H92N
PAR-2 calcium flux cell assay IC50 (human PAR-2 [8]): 7.6 nM
PAR-2 β-arrestin cell assay IC50, 1 µM SLIGKV (human PAR-2 [8]): 5.8 nM
PAR-2 β-arrestin cell based assay IC50, 2 µM SLIGKV (human PAR-2 [4]): 2.1 nM and 5.9 nM

B7: Ab309 (antibody, human IgG4, V domains shown)
VH: QVQLKESGPGLVQPSQTLSLTCTVSGFSLNSYGVIWARQPPGKGLDWMGVIWGNGNTYYNSDLKSRLSISRDTSKSQVFLKMNNLQAEDTALYFCARWRGYKDYPFDYWGQGVMVTVSS
VL: DIQMTQSPSFLSASVGDRVTFNCKASQNIYKYLDWYQQKLGEAPKLLIYNTNSLHTGIPSRFSGSGFGTDFTLTISSLQPEDVATYFCLQHNSGWTFGGGTKLELR
IC50, PAR-2 β-arrestin cell assay (human PAR-2 [1]): 1.6 nM
IC50, PAR-2 calcium flux assay (trypsin EC80) (human PAR-2 [2]): 6.7 nM
PAR-2 calcium flux cell assay IC50 (human PAR-2 [8]): 8.6 nM
PAR-2 β-arrestin cell assay IC50, 1 µM SLIGKV (human PAR-2 [8]): 4.4 nM
binding result (human PAR-1): no binding (tested: 10 µg/mL)

B8: 309-6i (antibody, human IgG4 S228P, kappa, V domains shown)
VH: EVQLVESGGGLVQPGGSLRLSCAASGFSLNSYGVIWVRQAPGKGLEWVSVIWGNGNTYYNDSVKGRFTISRDNSKNTLYLQMNSLRAEDTAVYYCARWRGYKDYPFDYWGQGTLVTVSS
VL: DIQMTQSPSSLSASVGDRVTITCKASQNIYKYLDWYQQKPGKAPKRLIYNTNSLHTGVPSRFSGSGSGTEFTLTISSLQPEDFATYYCLQHNSGWTFGGGTKVEIKR
PAR-2 β-arrestin cell assay IC50, 1 µM SLIGKV (human PAR-2 [8]): 40.6 nM
